The values below come from patent US20230055411A1 (UNIVERSIT DE BRETAGNE OCCIDENTALE UBO, published 2023).

Test [1] concerns the target T1, recombinant STIM1 EF/SAM peptide (STIM1 aa 58 to 201) (human, UniProt Q13586 58-201).
T1 construct: also called STIM1 EF/Hand peptide; soluble recombinant protein corresponding to the STIM1 EF-Hand domain
The test is described as follows: Octet (BLI), 1 to 1 fitting model, EF-SAM peptide at 200, 133.5 and 88.9 nM. As for the experimental part:
(§1) FIG. 10 represents the determination of the anti-STIM1 mAb clone B-Y12 affinity. […] High affinity interaction is characterized by a low K, a fast recognizing (high kon) and a stable formation of complexes (low kdis). kdis: dissociation rate constant. kon: complex formation rate.
(§2) Affinity constants (Kon, Kdis) were calculated.
On the technique in general: In BLI a coated tip is dipped into the sample, and binding shifts an interference pattern.

In test [2] the target is T2, STIM1 peptide 1A (STIM1 amino acids 128 to 168) (human, biotinylated in the ELISA of FIG. 3A (position not given)).
T2 construct: Immunization peptide from the SAM domain of STIM1
T2 sequence (peptide, as listed by the source): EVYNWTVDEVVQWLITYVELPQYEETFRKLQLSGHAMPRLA
Put plainly: ELISA, Peptide 1A (aa 128-168) coated at 1 µg/mL, B-Y12 titrated. As for the experimental part:
(§3) FIG. 3 illustrated the validation by Elisa of the monoclonal anti-STIM1 antibody clone B-Y12. […] Anti-STIM1 mAb clone B-Y12 mAb (10 μg/ml) was diluted to 1/10 and antigens STIM1 biotinylated peptides used at concentrations of 50 ng/well for peptides 1A and 1B and 100 ng/well for peptide 2A and 10 ng/well for peptide 2B). Panel B: Specificity of the B-Y12 antibody for STIM1 is confirmed by ELISA using the peptide 1A and a recombinant STIM1 EF/SAM peptide (1 μg/mL). B-Y12 mAb used at 100 μg/mL diluted to 1/10. Panel C: Specificity for the B-Y12 antibody for the peptide 1A over the other peptides (1A, 1B, 2A, 2B, C2, C3, C4, C5, C6, C7 and C8. Peptides are used at a concentration of 1 μg/mL. Histograms represents mean optical density (OD) measured using an Elisa approach.
(An ELISA detects its analyte on a solid surface through an enzyme-linked reagent.)

The target in test [3] is T1, recombinant STIM1 EF/SAM peptide (STIM1 …). The test is described as follows: Octet, 1 to 1 fitting model, EF-SAM peptide at 200 nM [table row 200]. Here is the method: as §1, §2
In the next test the target is T3, peptide 1B (biotinylated in the ELISA of Figure 3 panel A).
T3 construct: also called STIM1 aa 169 to 197
T3 sequence (peptide, as listed by the source): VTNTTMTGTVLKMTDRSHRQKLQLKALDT
Put plainly: ELISA, biotinylated peptide 1B at 50 ng/well, B-Y12 in 1/10 steps. Here is the method: as §3

A further test addresses T4, peptide 2B (biotinylated in the ELISA of Figure 3 panel A).
T4 construct: also called STIM1 aa 97 to 127
The test is described as follows: ELISA, biotinylated peptide 2B at 10 ng/well, B-Y12 in 1/10 steps. As for the experimental part:
as §3

A further test concerns the target T5, peptide 2A (biotinylated in the ELISA of Figure 3 panel A).
T5 construct: also called STIM1 aa 62 to 95
The test is described as follows: ELISA, biotinylated peptide 2A at 100 ng/well, B-Y12 in 1/10 steps. As for the experimental part: as §3

Test [4] has as its target T1, recombinant STIM1 EF/SAM peptide (STIM1 …). Put plainly: Octet, 1 to 1 fitting model, EF-SAM peptide at 88,8 nM [table row 88,8]. Here is the method: as §1, §2
For test [5] the target is unchanged. The test is described as follows: Octet, 1 to 1 fitting model, EF-SAM peptide at 133,5 nM [table row 133,5]. Here is the method: as §1, §2
Test [6] has the same target. The test is described as follows: Octet, 1 to 1 fitting model, EF-SAM peptide at 200 nM; column kdis(1/S) [table row 200]. Here is the method: as §1, §2
Test [7] has the same target. Put plainly: Octet, 1 to 1 fitting model, EF-SAM peptide at 88,8 nM; column kdis(1/S) [table row 88,8]. As for the experimental part:
as §1, §2

Test [8] has the same target. The test is described as follows: Octet, 1 to 1 fitting model, EF-SAM peptide at 133,5 nM; column kdis(1/S) [table row 133,5]. As for the experimental part: as §1, §2
For test [9], the target named is T6, STIM1 protein, mouse (plasma membrane STIM1 on spleen B and T cells of MRL/Lpr and C57Bl/6 mice) (mouse, UniProt P70302 23-685).
T6 construct: whole, on cells; also called mSTIM1 (mouse)
T6 sequence (P70302 23-685): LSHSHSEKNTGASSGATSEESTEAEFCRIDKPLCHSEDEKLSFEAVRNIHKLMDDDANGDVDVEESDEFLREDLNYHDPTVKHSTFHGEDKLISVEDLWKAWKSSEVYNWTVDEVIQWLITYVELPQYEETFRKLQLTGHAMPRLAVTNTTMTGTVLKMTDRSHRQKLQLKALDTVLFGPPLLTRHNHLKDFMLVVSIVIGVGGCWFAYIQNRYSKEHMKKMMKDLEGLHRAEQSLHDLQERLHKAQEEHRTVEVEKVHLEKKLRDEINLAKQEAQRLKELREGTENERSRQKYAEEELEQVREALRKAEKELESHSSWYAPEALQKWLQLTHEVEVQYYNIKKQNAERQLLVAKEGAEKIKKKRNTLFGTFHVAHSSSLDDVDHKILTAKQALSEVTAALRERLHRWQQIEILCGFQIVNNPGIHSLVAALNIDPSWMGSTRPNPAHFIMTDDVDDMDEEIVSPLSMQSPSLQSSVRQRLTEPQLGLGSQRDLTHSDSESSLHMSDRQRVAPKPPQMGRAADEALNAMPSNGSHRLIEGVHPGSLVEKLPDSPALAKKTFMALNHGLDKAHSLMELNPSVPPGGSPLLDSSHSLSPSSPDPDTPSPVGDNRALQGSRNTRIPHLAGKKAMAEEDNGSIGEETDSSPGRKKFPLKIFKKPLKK
Put plainly: direct flow cytometry with PE coupled B-Y12, spleen B cells of MRL/Lpr mice (n=4) [B cells]. Background: In flow cytometry, cells or beads pass a laser one at a time.

T1 sequence (Q13586 58-201): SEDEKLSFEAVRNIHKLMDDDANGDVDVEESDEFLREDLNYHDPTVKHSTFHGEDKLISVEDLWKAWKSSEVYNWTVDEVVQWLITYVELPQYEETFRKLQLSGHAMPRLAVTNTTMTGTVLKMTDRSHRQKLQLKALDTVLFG
T4 sequence (peptide, as listed by the source): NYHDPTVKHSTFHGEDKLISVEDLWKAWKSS
T5 sequence (peptide, as listed by the source): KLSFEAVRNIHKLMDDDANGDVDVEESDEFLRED

B1: monoclonal anti-STIM1 antibody clone B-Y12 (antibody, IgG2b, V domains shown)
VH: QVQLQQPGAELVKPGASVKLSCKASGYTFTSYWMHWVKLRPGQGFEWIGETNPRNGGTNYNEKFKRKATLTVDKSSSTAYMQLSSLTSEDSAVYYCTITKTVRATWYFDYWGQGTTLTVSS
VL: DVLMTQTPLSLPVSLGDQASISCRSSQSIVHSNGNTYLEWYLQKPGQSPKLLIYKVSNRFSGVPDRFSGSGSGTDFTLKISRVEAEDLGVYYCFQGSHVPYTFGGGTKLEIK
notes: In direct flow cytometry it was used coupled to phycoerythrin (PE); also called B-Y12 mAb; anti-STIM1 mAb clone B-Y12
What is called Kd is the concentration at which binding is half-saturated. Usually EC50 (read off the curve) stands for the concentration at which the effect is half-maximal. Low readings indicate higher potency in that assay, high ones lower potency in that assay. One may read the kon as the second-order rate constant of association. In general, koff refers to the rate constant with which the complex falls apart. Consider B1, for which the Kd in test [1] amounted to 15 nM. In addition, in test [2], the “EC50 (read off the curve)” value is approximately 4 ng/mL. Moreover, the association rate constant (kon) in test [3] was 20000 M⁻¹ s⁻¹; in test [4], 18800 M⁻¹ s⁻¹; in test [5], 23700 M⁻¹ s⁻¹. The binding result is “no binding” with peptide 1B, “no binding” with peptide 2B, “no binding” with peptide 2A and “binds” in test [9]. For the same molecule, the results for the koff in [6], in test [7] and in test [8] were 0.0004 s⁻¹, 0.000354 s⁻¹ and 0.000322 s⁻¹, respectively.
